These results are taken from the DeepSol protein solubility set.

A short description of the data set: soluble on expression in E. coli; label from the status in PepcDB or PDB records.
As for “MGSDKIHHHHHHMSPKTDIAEVNQESLYRIFTIPEAPDSTLGKIEKHLSENLMGFLGEHIVAREKPLQEIERDFDKSQIPEEPAFVSDHTEFLLDKLVAHSVHTASPRFIGHMTSALPYFLLPLAKLMVGLNQNLVKIETSKAFTPLERNVIGMMHHLVYQQDAPFYNRWMHSAQHSLGAFCSGGTIANMTALWVARNRLLQADGDFAGISADGLAAGLQHYGYSKLTVVVSERGHYSLSKAADVLGIGRRNLVSVATDSDNRIRIDELRKTCEKIAKEGGKVLALVGVAGTTETGHIDPLDEMATVAEEVDAHFHVDAAWGGATLLSEQHRPLLAGIERADSVTIDAHKQMYVPMGAGLVLFKNPALVKSIEYHAEYIIRQGSKDLGSHTMEGSRAGMAMMVFSAMHVIGRRGYELLINNSIDKARYFSKLISEQDDFEVITEPELCILTYRFVPIKVKTVLDKATPEQLARLTPHLNALTRYIQKRQRETGQSFVSRTKLTPAQYHHEPTVVFRVVLANPLTTNEMLQEVLCEQRKIAAKATSLRGALHTEMRELGMLI”, the “soluble on expression in E. coli” value is listed as “not soluble”. To “MGSDKIHHHHHHMSPLEMALLVHRGEFHLRELEPELPLEKFLKNADPKKTRKFLEKCGKEELERQKELIRKHNVKLVSFWEDDYPQHLREIRYPPAVLFVRGDAELLKEKCVGVVGTRRPTSYGVNVTKRFVKLLSEYFVIVSGMAFGIDSVAHKEALSSGGKTVAVLGTGVDVVYPRSNERLFHEIVKNGCVVSEYPMGTRARKHHFPARNRIIAGLSDAIIVTEAPIKSGALITVKFALESGRDVFAVPGDIDRKTSEGTNYLIKSGAYPLTDEEDLETHFGIRRIASPSLDDDKKKIYDLLRSSPKTVDELVEELGWSVSEVLRVISEMELMGMIWFDGGAYRLLG” belongs “not soluble”. For “MGSDKIHHHHHHMSPQEYCQNKAAASGSSFYYSFLFLPKAKREAITALYAFCREVDDIADDVQDVNVAQTKLNWWRSEIINLFEGKPQHPVTMALQSPVRELKLKQQHFLEIINGMQMDLEQNRYRDFEELELYCYRVASVVGLLSASIFGYSNPQTLQYALDLGMAFQLTNITRDVGEDGRRGRIYLPLDEISRFGVSEQDILQGKASDNMRQLLEFQVERAERYYEKALAELPLEDRKQQRTGLIMASIYRTLLKEIKRDDIQVVLNARVSLTPIRKLWLAWLTWIRN”, the “soluble on expression in E. coli” value was “not soluble”. As to “MGSDKIHHHHHHMSQLEKAQAEYAGFIQEFQSAIISTISEQGIPNGSYAPFVIDDAKNIYIYVSGLAVHTKNIEANPLVNVLFVDDEAKTNQIFARRRLSFDCTATLIERESQKWNQVVDQFQERFGQIIEVLRGLADFRIFQLTPKEGRFVIGFGA”, the “soluble on expression in E. coli” value is reported as “soluble”. To “MGSDKIHHHHHHMSQPVWPNFYIIGAVKSGTTSLYAYLRQHPQVFLPAMKEPHFFTQPHPSPEQRHWIQYVGNVEQYQQLYRGAERFPRIGDASPSYLWCEEAPERIHAVQPDARIIVILRDPVQRAHAQYLMDFNEGVLDLPFVEALQRDWTRPDKGWGISQLYVELGRYTAQIMRYQQQFGAGQVHVCLLEDLKKNPLAVLEDIADFLEIDRGPLHDMDLETVHNVHRLPRGNWARQLASGHISRYIGEHLFPRTWGEFVWRNVFLREGRKPPMDAEARSFLQAIYTPEIERLEQLLGRPLPELRISWKFSEPAGQSLSTALPPKPSGNR” belongs “not soluble”; to “MGSDKIHHHHHHMSQSKPLFPLNAWYAVAWDHEVKHALTPRKLCNLDVVLYRTTAGAVVALEDACWHRLVPLSMGKLRGDDVVCGYHGLVYNAQGRCVHMPSQETINPSACVRGFPVAEKHRYVWVWPGDPAQADVALIPDLHWSHDPAWAGDGRTIHAKCDYRLVLDNLMDLTHETFVHGSSIGQDEVAEAPFEVVHGDRTVTVSRWMHNIDPPPFWAGQIARHLNYHGKVDRWQIIHFEAPGTIAIDVGVAITGTGAPQGDRSQGVNGFVLNTITPETDTTCHYFWAFMRNYALHDQSLTTLTREGVTGVFGEDEAVLEAQQRAIEAHPDHAFYNLNVDAGGMWARRVIDRLIAREQRAGDLSLRMVG”, “not soluble”. To “MGSDKIHHHHHHMSQTLLALYGLKWNPFSADLPIAAVSVPPKVEDFCWRIEHALVREGGFALIQGDPGTGKSVILRLLAERLSRLPDLTVGAIHHPQSNLADFYRELGDIFAVSLKPSNRWGGFKALRERWLAHLEATRRRPVLLIDEAQEMNAPVLCELRLLSSARFDSQSLLSVLLAGDARLTEKLRREELVPLGSRIRVRLHTESASRNELLGCLEHLMTEAGNAGLMTAGLCQTLCDHAMGNYRVLTQMAAELLAAATQRQLDQLDEKLFLELYGPAQQPARRKAAH” belongs “not soluble”; to “MGSDKIHHHHHHMSRPKVIVTIAPTGGMASKQQNPHLPTQPEEIASDVYDCYNAGASVVAVHARRPDDGATCDAAIYRDINTRIRAKCDIVINNSTGGGVHGEMIGQASNGYWEILWEERLKGMDAGAELCTLDATTIIATFGGKELLMHTSPERSKHLAVEMKKRGIKPEWEVFSPTHIVQDVAALTAAGFDEEPFFINLVLGVHRNFQNAMPYSPRVLQSMVDLLPKGSIFCVSGIGPAQLPSAMNSLLLGGHVRVGLEDNLYYSAGELATNVQLVERVVRLVREMGYEPATPREAREIMGLPRSSGPRPDFAMQ”, “not soluble”.

Regarding “MGSDKIHHHHHHMSRRTQIADMRLSSGVPGFDELIEGGLLPNRLYVVSGPPGSGKTTFCSQFITQGVKEGETCLYVTMHETKTELMQDMAGYDFGFDRAMQSDAIQFLNLVTESGKRTITQFGNEGGLTNRLVAYIRQNDIQRVVIDSTMLLQHFMADVEDEITGFLSALKQTDATTLLISEMTDPSSYSDEHYLAHGVVFFHNFLENGSMTRGVQVIKMRGTAIDCDIREISFSDAGLQVHTDRKVET”, the “soluble on expression in E. coli” value is “not soluble”. To “MGSDKIHHHHHHMSSADLLAPYRGPLTVEQVATGMNAATANARRLAQDARLLLANKRWPTAASLAALSIEESGKVVILRRFVTANTDDIKRLWKEYRTHTKKNINWILPELVAKGARRLEDFKPIVDSASDHPDILDAMKQIGFYTDCLGKTNWSRPTEVVDETLAKNLVNAAEVLSPDRNISVRELELWAEHMGPVWNKNLDWMKQALVNWYGAMQAEGLMPAGSNKMQAFVKEGLATDQAKQIGREV” belongs “not soluble”; to “MGSDKIHHHHHHMSSATHYILTWQCPDNTGVLAKVSQSLFSHGAFITETSQYSDPYSETFFSRIAFDDRNLTVSSSEFVKALNELAKPLAMQYQLRKRADVPNVLIAVSKDDHCLVSLLTKWRSGALPINIVGVISNHQYCQALSEWHNVPFYHLPVNAETKLEQEAQITDLMEELNIDLLVLARYMQILSDGLCQQLQGKAINIHHSFLPSFKGARPYHQAHARGVKVIGATAHYVTANLDEGPIIAQEVKPINHAFTIEQMVHMGHDLEATALSHAVRIHAEQRVCINGDKTVILA”, “not soluble”; to “MGSDKIHHHHHHMSSIVLAVGNGKTLFGGSGVAPDADLVRFVDPESPIINAFDLCALRGDGIFEATTVWRGFPVSLENHLKRLANSARLVDMPEPNIPALTRAVQLVIDQYDDPEPGPMLRIIVSRGLDPDTGVGKAADRTPTVYIFLDAKGTLHSLEPITMASMTRGYPSDITARAPWLLNGAKTLSYAFNCAVHRECARRGVGDAILFTEDGYTMECPNSSIVARYGDTFVTPDPRIGILNGTSQREMFAWALEEGKKAEYRKLPIAELREADSLYMTHGGWSIPISAIDGRALAVDAAEIQAINDAIHSGRTHEDALKIGPTGDYE”, “not soluble”. As to “MGSDKIHHHHHHMSSKVAKELADFLLQIEQRSQFHAGYPYNLSCDYSAIGKFFNHLLNNAGDPYIEPDFGLHSRKFEQEVLSFFAHLYKIPENQFWGYVTAGGTEGNLYGIFLAREIYPNGILYSSQDSHYSIPKAAKLFRIQHNVVNSQINGEMNYDHFEQLLSENRRYPAIINLNIGTTVKGAIDNLDKVLEILERNQIKDYYIHCDAALSGLILPFLDGAPQVNFQKPIDSVAISAKFIGSPLPCGVVLTKKKWVEKVETEIEYIGSKDTTILGSRNGHTPLILWYAVQTRGYDGLAKEAKTCIHNAQYLFQQLQIREYPCMLNNFSNTVVFQKPSQRLIKKWQLAVFENWAHMIVMQNIVREKIDIFINELLLEQGLLNNAKNFQLQPVLQH”, the “soluble on expression in E. coli” value is reported as “not soluble”. “MGSDKIHHHHHHMSSPLLTMRGIRKSYAGVHALVDGNLDLERGQIHALCGGNGAGKSTILGILMGFTRPDCGEIRIEGKPVSFANPTQALQAGIAIVQQELSGVPHLTVAENIYLGAEPRRRGFVDFPQLNRQAEELLASLGFDIDPRVPLASLSIASQQLIEIAKALSRRDADILIFDEPTSAIGEKDTLRLFEVLRDLAAAGKGIIYVTHRLAEVFTIADSYTVFKDGARIETGRVADITREKLIESMIGGAIEGEYVKENVPSDRPLLDVRGLSRAPWFDRVSFTLHAGEILGIYGLVGSGRSQLLDTIYGLYPADAGTVWVEGREIRPGRVRAALGAGISYVTEDRKHSGLVLCASVGDNLSLSQLPHIQRFGFIRTALERAGIDDSIAKMRIKTPGPEQIVRNLSGGNQQKVVFGRCTSIGPKVLLLDEPTRGVDVGAKKEIYRFVSDFTKAGGAVLMVSSELDEITGMSDRIIVIKKGAHVAEFPREETTQKALMMAAV”: the “soluble on expression in E. coli” value is “not soluble”.

As for “MGSDKIHHHHHHMSSSPSTLNFGSMTDVFGFLIEIDKLKSVQRRTKIIGSERHEDSAEHSWHFAVAAMALAPYAGEGVDIQRVIQMALIHDIVEIDAGDVIVYDLSARLAIHDQEVAAAARIFGLLPEPQRQQFQDLWEEYEANETPSAQFALVLDRVMPMLMNLYNGGQSWVENGIRLEQVLDRAEFIATINPELWQYMKQHLEDAKAKGWLL”, the “soluble on expression in E. coli” value is “not soluble”.

For “MGSDKIHHHHHHMSTEPLASRMRPKNIDEIISQQHLVGPKGIIRRMVDTKKLTSMIFYGPPGIGKTSIAKAISGSTQYKFRQLNAVTNTKKDMQLVVEEAKMSGQVILLLDEIHRLDKAKQDFLLPHLENGKIVLIGATTSNPYHAINPAIRSRAQIFELYPLNDEDVRQALTRAIEDDENGLKTYQPKIDEDAMTYFSTQSQGDVRSALNALELAVLSADNDKDGYRHVTLQDAKDCLQKGAFVSDKDGDMHYDVMSAFQKSIRGSDVNAALHYLARLIEAGDLPTIVRRLLVISYEDIGLASPNAGQRTLAAIESAERLGLPEARIPLSQAVIELCLSPKSNSAMSAIDSALSDIRNGHVGQIPNHLKDGHYQGAKDLGRSIGYKYPHQYVNGYVSQQYLPDKLKNKIYYEPKTTSKSEQQLKEIYNNLLKQRP”, the “soluble on expression in E. coli” value was “not soluble”. As for “MGSDKIHHHHHHMSTKHAKAAEKFLENPVMAAWHNETLWMVRAKRDKMSKEVPEWEELRDKACALKLYSNSHLEELLLEFEKNATANGAIVHWAKDAEEYRAIVYEILSSHGVKHFVKSKSMLAEECELNPFLIEKGIDVVESDLGERILQLMNLAPSHIVLPAIHIKREQVGELFEKEMGTEKGNFDPTYLTHAARKNLRNIFLNAEAAMTGANFAVASTGDIVVCTNEGNADMGTSCPTLNIAAFGMEKIVPDMEALGVFTRLLARSATGQPITTYTSQYRNPREGGEYHIIIVDNGRSALLAHPDHIKTLNCIRCGACMNTCPVYRRSGGYSYTYFIPGPIGINLGMAHDPEKYYDNLSACSLCMSCSDVCPAKVDLAEQIYKWRQDLDKIGKANTGKKIMSGGMKVLMDHPTLFNAALWAAPVVNHLPRFMKYNDLDAWGKGRELPKFAGESFNEMWKKNKVQGKEENK”, the entry is “not soluble”; as for “MGSDKIHHHHHHMSTLIRSALLVKFSEIARTLSVDPERMIRHVGADRSCIVSPDLHVPEPWLANVLDASEQASSGAAVGLLMAESWRLSDFGPISLLLQHQPTLRHALGQLETYRHLLSESVLVHVEETDAVAIVRLQLITDRPTPGRQPVELSIGAMLCLMKSMLGGKWKPRSVHFTHGAPANLHVHRRLFGTNVEFGSDFDGIVLDRQDLDRPNPLGDVNLARYAREFLDQHPRGRRISTASNVRRSVHMLLPRGQGSIEQVGQQLGMSARTLQRRLGQEGQEFSSLVNEVRRGLASRYLADLRYPVSQVAMLVGFAEVSTFSRWFSSQFGMPPTRWRTGAEH”, “not soluble”.
